Laboratory results taken from article PMC8311663 (Molecular cell, 2021).

Columns and labels:
[1] = target: RNAP core (Mtb);sigmaA;CarD;RbpA;WhiB7 (Mycobacterium …, UniProt P9WGZ1;P9WGY9;P9WGY7;P9WGY5;P9WGI1;P9WJG3;P9WHJ5;Q6MX01 …, L7M||||); assay: cryo-EM
[2] = target: RNAP core (Mtb);sigmaA;CarD;RbpA (Mycobacterium …, UniProt P9WGZ1;P9WGY9;P9WGY7;P9WGY5;P9WGI1;P9WJG3;P9WHJ5 …, L7M|||); assay: cryo-EM

B1: whiB7 promoter (-70 to +30) (dsDNA)
DNA 1: CTGTACCGGCAAACGCGCAGGTCAGAAAATCGGTTGTGGTCAGCTGCTGCCACCGGTTAACCTCCAGGTCGCATTCTGCTGCCAGCCTGGAGATGGCATT
DNA 2: AATGCCATCTCCAGGCTGGCAGCAGAATGCGACCTGGAGGTTAACCGGTGGCAGCAGCTGACCACAACCGATTTTCTGACCTGCGCGTTTGCCGGTACAG
- binding result [1]: binds
- binding result [2]: binds
